Results taken from the nanobody polyreactivity screen of Harvey et al. (2022).

Test: yeast display, Sf9 membrane polyspecificity reagent, FACS + sequencing; frameworks hold sequencing errors
How it was run: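 Polyreactivity labels are assigned by the sorting gate from which each nanobody was recovered. The gates were low and high (top ~1%), set on anti-HA fluorescence for expression and streptavidin fluorescence for reagent binding. Before sorting, galactose-induced (36–48 hours) yeast display cells were stained for 1 hour at 4 °C with 10% biotinylated, detergent-solubilized Sf9 membrane reagent.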

Sequence | polyreactivity (PSR sort gate)
QVQLVESGGGLVQAGGSLRLSCAASGRTFYKNAMGWYRQAPGKERELVARISRGGSTNYADSVKGRFTISRDNAKNTVYLQMYSVKPEESAVYYCATEYGTHGKTYDYWGQGSQVTVSS | high polyreactivity
QVQLVESGGGLVQAGGSLRLSCAASGRIVGWYAMGWYRQAPGKERELVAGINYGGGRTYYADSVKGRFTISRDNAKNTVYLQMNSLKPEDTAVYYCAAGISGHYYWGQGTQVTVSS | high polyreactivity
QVQLVESGGCLVQAGGSLRLSCAASGSTFYDYDMGWYRQAPGKERELVAAISSSVSTYYADSVKGRFTISRDNAKNTVYFQMNSLKPEDTAVYYCAADYTGVWRYDYWGQGTQVTVSS | low polyreactivity
QVQLVESGGGLVQAGGSLRLSCAASGRTSYYNTMGWYRPAPGKERELVAASTGRGDSTYYADSVKGRFTISRDNAKKTGYLQMNSLKPEDTAVYYCAADELHLLYRVSKFVDYNHWGQGTQVTVSS | low polyreactivity
QVQLVESGGGLVQAGGSLRLSCAASGSILGGNAMGWSRQAPGKERELVAAITFSGGGTYYADSVKGRFTISRDNAKNTVYLQMNSLKPEDTAVYYCAADKDGYTYEFDYWGQGTQVTVSS | low polyreactivity
QLQLVESGGGLVQAGGSLRLTCAASGSIIWVYAMGWYSQAPGKEWELVAAITSGVSTYYADSVKGRFTISRDHAKNTVSFQMISLKPEDTAVYYCAVVGGFRWIRMEYWGQGTQVTVSS | low polyreactivity
QVQLVESGGGLVQAGGSLRLSCAASGRTYGGYAMGWYRQAPGKERELVAVINWRGGSTYYADSVKGRFTISRDNAKHTVYLQMNILKPEDTAVYYCNKVSLRTQSAQFHYWGQGTQVTVSS | high polyreactivity
QVQLVESGGGLVQAGGSLRLSCAASGFTFSFYTMGGYRQAPGTARELVAAISRNGGSTYYADSVKGRFTISRDNAKTTDYFQMNSLKPEDTAVYYCAARARGGDWGSGDYWGQGTQVTVSS | high polyreactivity
QVQLVESGGGLVQAGGSLRLSCAASGFTFRRYAMGWYRQAPGKETELVAVITTAGSTNYADSVKGRFTISRDNAKNTVHLQMNSLIPEDTAVYYCATDNGTRKRRYDYWGQGTQVTVSS | low polyreactivity
QVQLVESGGGLVQAGGSLRLSCAASGRIFSTNAMGWYRQAPWKERELVASISKSGGSTYYADSVKGRFTISRDNAKNTVYLQMNSLKPEDTAVYYCAASSYSTSYIRGDYWGQGTQVTVSS | low polyreactivity
QVQLVESPGGLVQAGGSLRLSCAASGRTFYRNAMGWYRQAPGKERELVAVISLNGGRTYYADSVKGRFTISRDNAKNTVYLQMNSLKPEDTAVYYCNKLTGPVFTRGFYYWGQGTQVTVSS | high polyreactivity
QVQLVESGGGLVQAGGSLRLSCAASGFTLDWYVMGWYRQAPGKERELVAAISSSGGRTYYADSVKGRFTISRDNAKNTVYLQMNSLKPEDPAVYYCAARNKYGGYPYGYDYWGQGTQVTVSS | high polyreactivity
QVQLVESGGGLVQAGGSLRLSCAASGYTFIDNAMGWYRQAPGKERELVAAISWSVDRTYYADSVKGRFTISRDNAKNTVYLQMNSLKPEDTAVYYCAAVHWWSSSLRMYYWGQGTQVTVSS | low polyreactivity
QVQLVESGGGLVQAGGSLRLSCAASGRIFGFNALGWYRQAPGKEREFVAAMSGNGGSTYYADSVKGRFTISRDTAKNTVYLPMLSLNPEDTADYYSAASVHATYFSGARHWVKLYDWRQGTQVTVSS | high polyreactivity
QGQLVESGGGLVQAGGSLRLSCAASGIIFILYTMGWYRQAPGKEREFVATISSGGGSTFYADSVKGRFTISRDNAKNTVYLQMNSLKPEDTAVYYCAAEQLYYCERYYIWGYYYWGQGTQVTVSS | low polyreactivity
QVQLVESGGGLVQAGGSLRLSCAASGSTFYPYAMGWYRQAPGKERELVAAISLSDTITYYADSVKGRFTISRDNAKNTVYLQMNSLKPEDTAVYYCAAETPGFVLYEYWGQGTQVTVSS | high polyreactivity

Sequence | polyreactivity (PSR sort gate)
QVQLVESGGGLVQAGGSLRLSCAASGRIFYYYAMGWYRQAPGKERELVAAISSIGGSTYADSVKGRFTISRDNAKNTVYLQMNSLKPEDTAVYYCAADGFKRLYTQVAHVRYDYWGQGTQVTVSS | low polyreactivity
QVQLVESGGGLVQAGGSLRLSCAASGFTFARYAMGWYRQAPGKERELVAAINWSGGRTYYADSVKGRFTISRDNAKNTVYLQMNSLKPEDTAVYYCNAWGLVYYSSGYDYWGQGTQVTVSS | high polyreactivity
QVQLQESGGRLVQASGSIFHEPNMGWHRQAPGKERELVATISDGAITNYADSVKGRFTISRDNAKNTVYLQMNSLIPEDTAVYYCAATGGLNGALSRLEYWGQGTQVSVSS | high polyreactivity
QVQLVESGGGLVQAGGSLRLSCAASGSIFRGNAMGWYRQAPGKERELVAVITWSGGSTYYADSVKGRFTISRDNAKNTVYLQMNSLKPEDTAVYYCNAARKQRVYFAGDYWGQGTQVTVSS | high polyreactivity
LVQLVESGGGLVQAGGSLRLSCAASGSTFSVNALGWYRQAPGNERELVAAITYSGGSTYYADSVKGRFTISRDTAKNTVYLQMNSLKPEDTAVYYCATRVWFYKSRGGYRERDYWGQGTQVTVSS | high polyreactivity
QVQLQESGGGLVQAGGSLRLSCAASGSIYVSVTMGWYRQAPGKERELVASIGRGSTTNHADSVKGRFTISRDNAKNIVYLLMNSLKPEDTAVYYCAALESYGKYHGYWGEGTQVTVSS | low polyreactivity
QVQLVESGGGLVQAGGSLRLSCAASGTTLGYYTMGWYRQAPGKERELVAAIDWSGGSTYYADSVKGRFTISRDNAKNTVYLQMNSLKPEDTAVYYCNAEPWDPFYSPGRGGMDYWGQGTQVNVSS | low polyreactivity
QVQLVESGGGLVQAGGSLRLRCAASGSTFGYNAMGWYRQAPGKESELVAAISSSGGTTYYADSVKARFTISRDNAKNTVYLQMNSLKPEDTAVYYCAADHTVGRYEFEFWGQGTQVTVSS | low polyreactivity
QVQLVETGGGLVQAGGSLRLSCAASGRIFVVYDMGWYRQAPGKERELVANITISGGRTYYADSVKGRFTISRDNAKNTVYLQMNSLKPEDTAVYYCAATSGALYYGYEYWGQGTQVTVSS | low polyreactivity
QVQLVESGGGLVQAGGSLRLSCAASGITFPGYARGWYRQAPGKASELVAAIDWSGDGTYYADSVKGRFTISRDNAKNTVYLQMNSLKPEDTAVYYCAKDNYPNHCTVRAVIYDYWGQGTQVTVSS | low polyreactivity
QVQLVESGVGIVQAGGSLRLICAASGSTFTIYAMGWYRQAPGKERELVAAITWNGGSTYYADSVKGRFTISRDNAKKTVYLQMNSLKPEDTAVYYCAAKFRYQYVRVAREYYYWGQGTQVTVSS | high polyreactivity
QVQLVESGGGLVQAGGSLRLSCAASGSTFSSYAMGWYRQAPGKERELVAGISWGGSSTDYADSVKGRFTISRDNAKNTVYLQMNSLKPEDTAVYYCARRYRRGWSTLDYWGQGTQVTVSS | low polyreactivity
QVQLVESGGGLVQAGGSLRLSCAASGITFYKYAMGWYRQAPGKERELVAAITSTGGRTYYADSVKGRFTISGDNAKNSVYLQMNSLKPEDTAVYYCAKVFNQFIEHDYWGQGTQVTVSS | low polyreactivity
QVQLVESGGGLVQAGGSLRLSCAASGSIFQWYAMGWYRQAPGKERELVAAISWDGDSTYYADSVKGRFTISRDNAKNTVYLQMNSMNPEDTAVYYCAADYEWEYEYWGQGTQVTVSS | high polyreactivity
QVQLVESGGGLVQAGGSLRLSCAASGIIFYFYAMGWYRQAPGKERELVADITSGDRTNYADSVKGRFTISRDNAKNTVYLQMNSLKPEDTAVYYCAAGTSKPTPIYGYWGQGTQVTVSS | low polyreactivity
QVQLVESGGGLVQAGGSLRLSCAASGFTFRTYAMGWYRQAPGKEREYVAAINGRSGSTYADSVKGRFTISRDNAKNTVYLQMISLKPEDTAVYYCAARVRRGSTQAQFYYWGQGTQVTVSS | high polyreactivity
